In patent publication US20200317768A1 (published 2020):

T1: human FcγRIIaR extracellular domain with C-terminal His-tag (human, UniProt P12318 34-217)
T1 construct: Expressed in FreeStyle 293 cells and purified; also called human FcγRIIa (type R); FcgRIIaR; not shown: C-terminal His-tag
T1 chain: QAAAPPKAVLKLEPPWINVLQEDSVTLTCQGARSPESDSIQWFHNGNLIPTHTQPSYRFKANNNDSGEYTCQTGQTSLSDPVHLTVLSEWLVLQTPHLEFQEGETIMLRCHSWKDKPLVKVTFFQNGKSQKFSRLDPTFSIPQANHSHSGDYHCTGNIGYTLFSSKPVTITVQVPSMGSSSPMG

T2: cynomolgus monkey FcγRIIa3 extracellular domain with C-terminal His-tag (cynomolgus monkey)
T2 construct: Expressed in FreeStyle 293 cells and purified; also called cyno FcγRIIa3; cynoFcgRIIa3; not shown: C-terminal His-tag
T2 chain: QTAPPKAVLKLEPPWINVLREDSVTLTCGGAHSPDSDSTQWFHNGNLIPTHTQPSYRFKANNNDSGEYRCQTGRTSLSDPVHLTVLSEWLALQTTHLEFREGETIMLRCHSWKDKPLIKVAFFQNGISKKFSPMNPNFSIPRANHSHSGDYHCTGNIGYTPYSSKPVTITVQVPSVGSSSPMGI

T3: cynomolgus monkey FcγRIIa1 extracellular domain with C-terminal His-tag (cynomolgus monkey)
T3 construct: Expressed in FreeStyle 293 cells and purified; also called cyno FcγRIIa1; cynoFcgRIIa1; not shown: C-terminal His-tag
T3 chain: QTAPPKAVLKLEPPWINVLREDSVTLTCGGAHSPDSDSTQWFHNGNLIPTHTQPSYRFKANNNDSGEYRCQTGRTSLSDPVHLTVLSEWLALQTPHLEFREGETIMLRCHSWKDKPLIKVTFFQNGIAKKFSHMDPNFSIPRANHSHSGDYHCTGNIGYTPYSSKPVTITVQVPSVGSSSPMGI

T4: cynomolgus monkey FcγRIIIaS extracellular domain with C-terminal His-tag (cynomolgus monkey, UniProt Q8SPW2 21-206 at identity 1.00))
T4 construct: Expressed in FreeStyle 293 cells and purified; also called cyno FcγRIIIaS; cynoFcγRIIIaS; not shown: C-terminal His-tag
T4 chain: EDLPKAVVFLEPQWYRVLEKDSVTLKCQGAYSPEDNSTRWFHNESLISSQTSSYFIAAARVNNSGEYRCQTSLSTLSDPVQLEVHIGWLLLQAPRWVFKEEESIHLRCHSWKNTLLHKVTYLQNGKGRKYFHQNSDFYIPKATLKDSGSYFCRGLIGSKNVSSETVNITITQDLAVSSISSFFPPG

T5: cynomolgus monkey FcγRIIa2 extracellular domain with C-terminal His-tag (cynomolgus monkey)
T5 construct: Expressed in FreeStyle 293 cells and purified; also called cyno FcγRIIa2; cynoFcgRIIa2; not shown: C-terminal His-tag
T5 chain: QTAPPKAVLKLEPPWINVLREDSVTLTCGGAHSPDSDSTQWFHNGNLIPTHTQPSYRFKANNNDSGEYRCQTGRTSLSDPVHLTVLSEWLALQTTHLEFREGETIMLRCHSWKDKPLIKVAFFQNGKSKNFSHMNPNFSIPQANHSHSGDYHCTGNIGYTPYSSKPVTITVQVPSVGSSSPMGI

T6: cynomolgus monkey FcγRIIb extracellular domain with C-terminal His-tag (cynomolgus monkey)
T6 construct: Expressed in FreeStyle 293 cells and purified; also called cyno FcγRIIb; cynoFcγRIIb; not shown: C-terminal His-tag
T6 chain: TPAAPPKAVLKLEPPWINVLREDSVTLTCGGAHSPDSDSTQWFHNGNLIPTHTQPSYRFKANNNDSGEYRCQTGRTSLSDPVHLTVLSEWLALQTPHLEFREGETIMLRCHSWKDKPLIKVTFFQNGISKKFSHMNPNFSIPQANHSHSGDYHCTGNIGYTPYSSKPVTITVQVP

T7: human FcγRIIb extracellular domain with C-terminal His-tag (human, UniProt P31994 43-217)
T7 construct: Expressed in FreeStyle 293 cells and purified; also called humanFcgRIIb; not shown: C-terminal His-tag
T7 sequence: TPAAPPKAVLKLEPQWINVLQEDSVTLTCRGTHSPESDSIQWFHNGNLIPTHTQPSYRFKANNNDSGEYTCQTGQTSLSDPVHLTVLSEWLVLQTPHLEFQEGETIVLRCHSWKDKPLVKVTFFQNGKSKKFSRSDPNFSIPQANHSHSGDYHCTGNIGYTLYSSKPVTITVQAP

T8: human FcγRIIaH extracellular domain with C-terminal His-tag (human, UniProt P12318 34-217)
T8 construct: Expressed in FreeStyle 293 cells and purified; also called human FcγRIIa (type H); FcgRIIaH; not shown: C-terminal His-tag
T8 sequence: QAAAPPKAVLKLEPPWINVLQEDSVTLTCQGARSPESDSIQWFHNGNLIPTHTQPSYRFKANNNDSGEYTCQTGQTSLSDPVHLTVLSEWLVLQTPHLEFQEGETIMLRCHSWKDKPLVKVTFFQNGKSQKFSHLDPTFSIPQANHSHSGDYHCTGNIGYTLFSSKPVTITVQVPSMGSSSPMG


Columns and labels:
Test in all cases: SPR (Biacore); KD of SG1 divided by KD of the variant for this FcgR;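 further: relative to parent M103205H795-SG1 carrying the SG1 human heavy chain constant region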
[1] = target: T1, human FcγRIIaR extracellular domain …
[2] = target: T2, cynomolgus monkey FcγRIIa3 …
[3] = target: T3, cynomolgus monkey FcγRIIa1 …
[4] = target: T4, cynomolgus monkey FcγRIIIaS …
[5] = target: T5, cynomolgus monkey FcγRIIa2 …
[6] = target: T6, cynomolgus monkey FcγRIIb extracellular …
[7] = target: T9, human FcγRIIIaV extracellular domain with C-terminal His-tag (human, UniProt P08637 17-208)
T9 construct: Expressed in FreeStyle 293 cells and purified; also called FcgRIIIaV; not shown: C-terminal His-tag
T9 sequence (P08637 17-208 F176V): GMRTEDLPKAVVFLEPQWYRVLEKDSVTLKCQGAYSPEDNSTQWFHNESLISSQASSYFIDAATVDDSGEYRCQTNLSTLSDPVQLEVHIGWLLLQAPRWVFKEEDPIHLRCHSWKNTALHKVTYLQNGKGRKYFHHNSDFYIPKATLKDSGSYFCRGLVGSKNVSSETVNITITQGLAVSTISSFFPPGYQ

[8] = target: T7, human FcγRIIb extracellular domain with …
[9] = target: T8, human FcγRIIaH extracellular domain …

Binder | KD fold (SG1 = 1) [1] | KD fold (SG1 = 1) [2] | KD fold (SG1 = 1) [3] | KD fold (SG1 = 1) [4] | KD fold (SG1 = 1) [5] | KD fold (SG1 = 1) [6] | KD fold (SG1 = 1) [7] | KD fold (SG1 = 1) [8] | KD fold (SG1 = 1) [9]
M103205H795-MY289 / M103202L889-SK1 (antibody, human IgG1, kappa, Fc variant of M103205H795-SG1, expressed with M103202L889-SK1 as light chain) heavy: QVTLKESGPVLVKPTETLTLTCTVSGIDLSHDDISWVRQAPGKGLEWVGIISYAGSTYYASWAKGRLTISKDTSKNQVVLTMTNMDPVDTATYYCARGVPAYSHGGDLWGQGTLVTVSSASTKGPSVFPLAPSSKSTSGGTAALGCLVKDYFPEPVTVSWNSGALTSGVHTFPAVLQSSGLYSLSSVVTVPSSSLGTQTYICNVNHKPSNTKVDKKVEPKSCDKTHTCPPCPAPELLNGPSVFLFPPKPKDTLMISRTPEVTCVVVDVSHEDPEVKFNWYVDGVEVHNAKTKPREEQYNSTYRVVSVLTVLHQDWLNGKEYKCKVSNKALPKPIEKTISKAKGQPREPQVYTLPPSREEMTKNQVSLTCLVKGFYPSDIAVEWESNGQPENNYKTTPMVLDSDGSFFLYSKLTVDKSRWQQGNVFSCSVMHEALHNHYTQKSLSLSP light: DIVMTQSPATLSLSPGERATLSCTSSQSVYHANWLSWFQQKPGQPPKLLIYWASTLAYGVPSRFSGSGSGTDFTLTISSLQPEDAATYYCAGGYGGGRYAFGQGTKVEIKRTVAAPSVFIFPPSDEQLKSGTASVVCLLNNFYPREAKVQWKVDNALQSGNSQESVTEQDSKDSTYSLSSTLTLSKADYEKHKVYACEVTHQGLSSPVTKSFNRGEC | 0.8 fold | 2 fold | 2.5 fold | 0.07 fold | 3.4 fold | 2.4 fold | 0.11 fold | 1.6 fold | 0.3 fold
M103205H795-MY330 / M103202L889-SK1 (antibody, human IgG1, kappa, Fc variant of M103205H795-SG1, expressed with M103202L889-SK1 as light chain) heavy: QVTLKESGPVLVKPTETLTLTCTVSGIDLSHDDISWVRQAPGKGLEWVGIISYAGSTYYASWAKGRLTISKDTSKNQVVLTMTNMDPVDTATYYCARGVPAYSHGGDLWGQGTLVTVSSASTKGPSVFPLAPSSKSTSGGTAALGCLVKDYFPEPVTVSWNSGALTSGVHTFPAVLQSSGLYSLSSVVTVPSSSLGTQTYICNVNHKPSNTKVDKKVEPKSCDKTHTCPPCPAPELWNGPSVFLFPPKPKDTLMISRTPEVTCVVVDVSEEDPEVKFNWYVDGVEVHNAKTKPREEQYNSTYRVVSVLTVLHQDWLNGKEYKCKVSNKALPKPIEKTISKAKGQPREPQVYTLPPSREEMTKNQVSLTCLVKGFYPSDIAVEWESNGQPENNYKTTPMVLDSDGSFFLYSKLTVDKSRWQQGNVFSCSVMHEALHNHYTQKSLSLSP light: DIVMTQSPATLSLSPGERATLSCTSSQSVYHANWLSWFQQKPGQPPKLLIYWASTLAYGVPSRFSGSGSGTDFTLTISSLQPEDAATYYCAGGYGGGRYAFGQGTKVEIKRTVAAPSVFIFPPSDEQLKSGTASVVCLLNNFYPREAKVQWKVDNALQSGNSQESVTEQDSKDSTYSLSSTLTLSKADYEKHKVYACEVTHQGLSSPVTKSFNRGEC | 1.2 fold | 3.6 fold | 1.5 fold | 0.05 fold | 2.3 fold | 3 fold | 0.07 fold | 6.9 fold | 0.7 fold

Next, values leading:

KD fold (SG1 = 1) [1] | KD fold (SG1 = 1) [2] | KD fold (SG1 = 1) [3] | KD fold (SG1 = 1) [4] | KD fold (SG1 = 1) [5] | KD fold (SG1 = 1) [6] | KD fold (SG1 = 1) [7] | KD fold (SG1 = 1) [8] | KD fold (SG1 = 1) [9] | Binder
0.6 fold | 2.7 fold | 1.1 fold | 0.03 fold | 2.1 fold | 2.4 fold | 0.05 fold | 3.3 fold | 0.4 fold | M103205H795-MY434 / M103202L889-SK1 (antibody, human IgG1, kappa, Fc variant of M103205H795-SG1, expressed with M103202L889-SK1 as light chain) heavy: QVTLKESGPVLVKPTETLTLTCTVSGIDLSHDDISWVRQAPGKGLEWVGIISYAGSTYYASWAKGRLTISKDTSKNQVVLTMTNMDPVDTATYYCARGVPAYSHGGDLWGQGTLVTVSSASTKGPSVFPLAPSSKSTSGGTAALGCLVKDYFPEPVTVSWNSGALTSGVHTFPAVLQSSGLYSLSSVVTVPSSSLGTQTYICNVNHKPSNTKVDKKVEPKSCDKTHTCPPCPAPELWNGPSVFLFPPKPKDTLMISRTPEVTCVVVDVSDEDPEVKFNWYVDGVEVHNAKTKPREEQYNSTYRVVSVLTVLHQDWLNGKEYKCKVSNKALPKPIEKTISKAKGQPREPQVYTLPPSREEMTKNQVSLTCLVKGFYPSDIAVEWESNGQPENNYKTTPPVLDSDGSFFLYSKLTVDKSRWQQGNVFSCSVMHEALHNHYTQKSLSLSP light: DIVMTQSPATLSLSPGERATLSCTSSQSVYHANWLSWFQQKPGQPPKLLIYWASTLAYGVPSRFSGSGSGTDFTLTISSLQPEDAATYYCAGGYGGGRYAFGQGTKVEIKRTVAAPSVFIFPPSDEQLKSGTASVVCLLNNFYPREAKVQWKVDNALQSGNSQESVTEQDSKDSTYSLSSTLTLSKADYEKHKVYACEVTHQGLSSPVTKSFNRGEC
1 fold | 3.5 fold | 2 fold | 0.04 fold | 2.8 fold | 5.9 fold | 0.05 fold | 5.8 fold | 0.8 fold | M103205H795-MY440 / M103202L889-SK1 (antibody, human IgG1, kappa, Fc variant of M103205H795-SG1, expressed with M103202L889-SK1 as light chain) heavy: QVTLKESGPVLVKPTETLTLTCTVSGIDLSHDDISWVRQAPGKGLEWVGIISYAGSTYYASWAKGRLTISKDTSKNQVVLTMTNMDPVDTATYYCARGVPAYSHGGDLWGQGTLVTVSSASTKGPSVFPLAPSSKSTSGGTAALGCLVKDYFPEPVTVSWNSGALTSGVHTFPAVLQSSGLYSLSSVVTVPSSSLGTQTYICNVNHKPSNTKVDKKVEPKSCDKTHTCPPCPAPELWNGPSVFLFPPKPKDTLMISRTPEVTCVVVDVSDEDPEVKFNWYVDGVEVHNAKTKPREELYNSTYRVVSVLTVLHQDWLNGKEYKCKVSNKALPKPIEKTISKAKGQPREPQVYTLPPSREEMTKNQVSLTCLVKGFYPSDIAVEWESNGQPENNYKTTPPVLDSDGSFFLYSKLTVDKSRWQQGNVFSCSVMHEALHNHYTQKSLSLSP light: DIVMTQSPATLSLSPGERATLSCTSSQSVYHANWLSWFQQKPGQPPKLLIYWASTLAYGVPSRFSGSGSGTDFTLTISSLQPEDAATYYCAGGYGGGRYAFGQGTKVEIKRTVAAPSVFIFPPSDEQLKSGTASVVCLLNNFYPREAKVQWKVDNALQSGNSQESVTEQDSKDSTYSLSSTLTLSKADYEKHKVYACEVTHQGLSSPVTKSFNRGEC
